Test results published in patent publication US10300107B2, “Compositions and methods for CaMKII inhibitors and uses thereof” (THE REGENTS OF THE UNIVERSITY OF COLORADO, priority 2007, dated 2019).

How the values were obtained:
[1] = target: T1, CaM dissociation from CaMKII (Homo sapiens, UniProt Q9UQM7); assay: TA-CaM dissociation from CaMKII; format: binding; details: 5 μM; 150 nM CaMKII, 30 nM TA-CaM
T1 construct: made in house; host or cells: baculovirus/Sf9 cells (CaMKII)
Description: TA-CaM dissociation was assessed by increased TA-CaM (30 nM) fluorescence after dissociation from CaMKII or its CaM-binding domain (CBD) (150 nM) during a chase with unlabeled CaM (60 μM). Buffer contained 50 mM Hepes pH 7.4, 150 mM KCl, 2 mM MgCl2, 2 mM MgADP, 2 mM CaCl2, and 0.1 mg/ml BSA. Fluorescence was measured in a time scan (1 sec samples) at 365 nm excitation and 415 nm emission wavelength on a spectro-fluorometer (Fluorolog3; Horiba Jobin Yvon) and was corrected for photobleach (FIG. 16).

[2] = system: CaMKII T-site mutants W237R and 1205K; assay: Kinase assay with GFP-CaMKIIα T-site mutants; format: biochemical; details: substrate syntide2
From the text: In another example, FIG. 3. […] FIG. 3A represents a model of CaMKII kinase domain (Rosenberg et al., 2005) with the substrate binding S-site (indicated), the T286-region binding T-site (indicated), and the regulatory region (shown as ribbon). The arrow indicates the proposed orientation of CN21a binding to the T-site, when the regulatory region is displaced after activation. […] Results are normalized to maximal kinase activity without inhibitor. Error bars show s.e.m. […] Bound CaMKII was eluted and detected by Western blot.
CaMKII activity assays. Standard CaMKII assays were done for 1 min at 30° C. previously described, with 20 nM CaMKII (subunit, not holoenzyme concentration), 50 mM PIPES pH 7.2, 0.1 mg/ml BSA, 10 mM MgCl2, 100 μM [γ-^32P] ATP (˜1 Ci/mmol), 1 mM CaCl2, 1-2 μM CaM, and 30-60 μM AC2 peptide (or syntide2). The reactions were spotted onto Whatman P81 phosphocellulose paper rectangles (˜2×2.5 cm). To remove free radioactivity, the paper rectangles were rinsed and washed for 30 min under agitation in 0.5% phosphoric acid or water. […] Radioactivity of the bound peptides was quantified in a Beckman 6000TA scintillation counter by the Cherenkov method. Any changes of the standard protocol were done as indicated. For assays of the GFP-CaMKIIα mutants, kinase amounts were normalized by GFP fluorescence in the extract, and total protein was adjusted with Cos-7 extracts.

CaM dissociation from CaMKII [1]: slowed down CaM dissociation from CaMKII
activity of CaMKII T-site mutants W237R and 1205K compared to GFP-CaMKIIα wild type [2]: significantly less affected
B1: CaM-KIIN: natural CaMKII inhibitor protein expressed in brain (protein, UniProt Q7Z7J9 1-78, looked up)
Calcium/calmodulin-dependent …: MSEVLPYGDEKLSPYGDGGDVGQIFSCRLQDTNNFFGAGQNKRPPKLGQIGRSKRVVIEDDRIDDVLKNMTDKAPPGV
